From patent US20230047413A1 (Janssen / Centocor, published 2023) come the findings set out here.

Non-standard residues stand in square brackets, D forms with d. *: point of attachment. Biotin = O=C1N[C@H]2[C@H](CS[C@H]2CCCCC(=O)*)N1; pT = C[C@@H](OP(=O)(O)O)[C@H](N)C(=O)O; pS = N[C@@H](COP(=O)(O)O)C(=O)O; dPEG4 = PEG4 moiety

Assay [1] has as its target T1, Peptide-1 (human, phosphothreonine 212, phosphoserine 214, phosphothreonine 217 (tau 2N4R numbering); short chain biotin (SCBiot) and dPEG4 at the N-terminus; amide at the C-terminus).
T1 construct: also called tau peptide phosphorylated at T212/S214/T217
Briefly: SPR ProteOn, peptide captured, Fab as analyte; range of n=2; Peptide-1 (pT212/pS214/pT217); upper end of n=2 range. On the procedure:
(§1) The binding affinity of PT3 Fab towards each of the fourteen tau phosphopeptides shown in Table 6 was assessed by surface plasmon resonance (SPR) using a Bio-Rad ProteOn XPR36. Peptides were synthesized by standard chemical methods (New England Peptide) with short-chain biotin and a PEG4 moiety at the N-terminus. Biotinylated peptide was captured on a neutravidin-coated NLC biosensor chip and PT3 Fab was flowed over the surface to measure kinetic parameters.
(§2) All experiments were performed at 25° C. using phosphate buffered saline, pH 7.4, 0.005% Tween 20 (PBST) as both running buffer and sample dilution buffer. Prior to running samples, the NLC chip was conditioned by running PBST over the chip surface for 1 h. Approximately 5-10 RU of peptide was captured on the chip surface by diluting peptide to 10 ng/mL in PBST and injecting over the flow channels at 30 μL/min for 100 s. Serial dilutions of PT3 Fab (1.1-90 nM) were analyzed and, with the exception of Peptide-8, each concentration was measured in duplicate. After capture of peptides, the antibody titration was injected at 60 μL/min for 3 minutes (association phase), followed by 300 s of buffer only (dissociation phase).
(§3) The data were double referenced by subtraction of the interspot response and the curves generated by the buffer-only injection. […] The data were analyzed using a simple Langmuir 1:1 binding model.

The target of assay [2] is T2, tau phospho-peptide of the direct ELISA of Example 11.
T2 construct: also called pT217 peptide; pT212/pT217 peptide
Briefly: direct ELISA, peptide coated. An outline of the steps:
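Tau phospho-peptide coated directly on plates at 10 ng/mL overnight, then incubated with antibodies. Bound Fab detected with HRPO-labelled anti-Fab antibody (1:10000) and TMB substrate. Binding curves generated from the read-out.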

The target of assay [3] is T3, Peptide-7 (human, phosphothreonine 212, phosphoserine 214 (tau 2N4R numbering); SCBiot and dPEG4 at the N-terminus; amide at the C-terminus). Briefly: SPR ProteOn, peptide captured, Fab as analyte; Peptide-7, phosphorylated at 212/214. The method, then: as §1, §2, §3
T3 sequence (peptide, as listed by the source): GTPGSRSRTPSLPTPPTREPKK
Assay [4] deals with T3, Peptide-7. In words: SPR ProteOn, peptide captured, Fab as analyte. The method, then: as §1, §2
(§4) The data were double referenced by subtraction of the interspot response and the curves generated by the buffer-only injection. The chip surface was regenerated using a single injection of 0.85% phosphoric acid at 30 μL/min for 100 s contact time, followed by four injections of running buffer before the next antibody titration injection. The data processing and kinetic analysis were done using the instrument software. The data were analyzed using a simple Langmuir 1:1 binding model.

Assay [5] concerns the target T4, Peptide-2 (human, phosphothreonine 212, phosphothreonine 217 (tau 2N4R numbering); short chain biotin (SCBiot) and dPEG4 at the N-terminus; amide at the C-terminus).
T4 construct: also called pT212/pT217-tau peptide (Peptide-2)
Briefly: SPR ProteOn, peptide captured, Fab as analyte. On the procedure: as §1, §2, §4

For assay [6], the target named is Peptide-3 (human, phosphoserine 214, phosphothreonine 217 (tau 2N4R numbering); SCBiot and dPEG4 at the N-terminus; amide at the C-terminus). Briefly: SPR ProteOn, peptide captured, Fab as analyte. On the procedure:
as §1, §2, §4

The target in assay [7] is Peptide-4 (human, phosphoserine 210, phosphothreonine 217 (tau 2N4R numbering); SCBiot and dPEG4 at the N-terminus; amide at the C-terminus). Briefly: SPR ProteOn, peptide captured, Fab as analyte. The method, then:
as §1, §2, §4

Assay [8] addresses Peptide-6 (human, phosphothreonine 217 (tau 2N4R numbering); SCBiot and dPEG4 at the N-terminus; amide at the C-terminus). In words: SPR ProteOn, peptide captured, Fab as analyte. The method, then:
as §1, §2, §4

Assay [9] addresses Peptide-5 (human, phosphoserine 210, phosphoserine 214, phosphothreonine 217 (tau 2N4R numbering); SCBiot and dPEG4 at the N-terminus; amide at the C-terminus). Briefly: SPR ProteOn, peptide captured, Fab as analyte. The method, then: as §1, §2, §4
The target in assay [10] is T5, Peptide-11 (human).
T5 peptide: {Biotin-dPEG4}-SPGTPG[pS]RSR[pT]P[pS]LPTPPT-NH2
In words: SPR ProteOn, peptide captured, Fab as analyte. On the procedure: as §1, §2, §4

In assay [11] the target is T1, Peptide-1. In words: SPR ProteOn, peptide captured, Fab as analyte. On the procedure: as §1, §2, §4
Assay [12] deals with T6, Peptide-8 (human, phosphothreonine 212 (tau 2N4R numbering); SCBiot and dPEG4 at the N-terminus; amide at the C-terminus).
T6 construct: also called pT212-tau peptide (Peptide-8)
In words: SPR ProteOn, peptide captured, Fab as analyte; n=1. The method, then:
as §1, §2, §4

B1: PT3 Fab (B187) (Fab, V domains shown)
VH: EVKLVESGGDLVKPGGSLKLSCAASGFTFSSYAMSWVRQNPEKRLEWVASISKGGNTYYPNSVKGRFTISRDNARNILYLQMSSLRSEDTALYYCARGWGDYGWFAYWGQVTLVTVSA
VL: DIKMTQSPSSMYASLGERVTITCKASQDINRYLNWFQQKPGKSPKTLIYRANRLLDGVPSRFSGSGSGQDYSLTISSLDYEDMGIYYCLQYDEFPLTFGDGTKLELK
notes: Chimeric Fab: mouse variable regions, human IgG1/kappa constant region, 6xHis tag at the C-terminus of the heavy chain; also called mouse parental Fab of PT3
The term Kd denotes the equilibrium constant for the complex coming apart. For orientation: EC50 means the concentration at which the effect is half-maximal. A low value points to higher potency in that assay. As usually defined, the koff is a measure of how fast the partners let go of each other. As a reminder, the kon is a measure of how fast the partners come together. Low values mean slow association, high ones fast association. On to B1, for which the dissociation constant Kd was 0.14 to 0.38 nM in [1], 13.5 nM in [3] and 23 nM in assay [12]. In assay [2], this molecule yielded a concentration giving a half-maximal response (EC50) of 0.11 nM. The koff came out at 0.00555 s⁻¹ in assay [4]; 0.000168 s⁻¹ in assay [5]; 0.00547 s⁻¹ in assay [6]; 0.00627 s⁻¹ in [7]; 0.00616 s⁻¹ in [8]; 0.00584 s⁻¹ in assay [9]. The koff was determined as 0.00028 s⁻¹ in [11] and 0.00646 s⁻¹ in assay [12]. The on-rate constant (kon) is 422000 M⁻¹ s⁻¹ in [4]; 764000 M⁻¹ s⁻¹ in [5]; 1.04e+06 M⁻¹ s⁻¹ in [6]; 968000 M⁻¹ s⁻¹ in [7]; 541000 M⁻¹ s⁻¹ in assay [8]; 704000 M⁻¹ s⁻¹ in assay [9]. In addition, the figures for the kon in [11] and in assay [12] were 1.27e+06 M⁻¹ s⁻¹ and 281000 M⁻¹ s⁻¹, respectively. In assay [10], the binding result was “no binding (tested: 1.1-90 nM)”.
